To fix the notation:
B1: Compound 133 (peptide)
peptide: Ac-SEFCI[Trp(1-Me)]QDWGEHRCTEK[γGlu]GGGK([γGlu-Gly-γGlu-C18 diacid])-NH2
modifications: disulfide 4-14
SMILES: CC[C@H](C)[C@@H]1NC(=O)[C@@H](NC(=O)[C@H](Cc2ccccc2)NC(=O)[C@H](CCC(=O)O)NC(=O)[C@H](CO)NC(C)=O)CSSC[C@@H](C(=O)N[C@H](C(=O)N[C@@H](CCC(=O)O)C(=O)N[C@@H](CCCCN)C(=O)N[C@@H](CCC(=O)NCC(=O)NCC(=O)NCC(=O)N[C@@H](CCCCNC(=O)CC[C@H](NC(=O)CNC(=O)CC[C@H](NC(=O)CCCCCCCCCCCCCCCCC(=O)O)C(=O)O)C(=O)O)C(N)=O)C(=O)O)[C@@H](C)O)NC(=O)[C@H](CCCNC(=N)N)NC(=O)[C@H](Cc2c[nH]cn2)NC(=O)[C@H](CCC(=O)O)NC(=O)CNC(=O)[C@H](Cc2c[nH]c3ccccc23)NC(=O)[C@H](CC(=O)O)NC(=O)[C@H](CCC(N)=O)NC(=O)[C@H](Cc2cn(C)c3ccccc23)NC1=O
B2: Compound 132 (peptide)
peptide: Ac-SEFCI[Trp(1-Me)]QDWGEHRC[Sar]EK[γGlu]GGGK([γGlu-Gly-γGlu-C18 diacid])-NH2
modifications: disulfide 4-14
SMILES: CC[C@H](C)[C@@H]1NC(=O)[C@@H](NC(=O)[C@H](Cc2ccccc2)NC(=O)[C@H](CCC(=O)O)NC(=O)[C@H](CO)NC(C)=O)CSSC[C@@H](C(=O)N(C)CC(=O)N[C@@H](CCC(=O)O)C(=O)N[C@@H](CCCCN)C(=O)N[C@@H](CCC(=O)NCC(=O)NCC(=O)NCC(=O)N[C@@H](CCCCNC(=O)CC[C@H](NC(=O)CNC(=O)CC[C@H](NC(=O)CCCCCCCCCCCCCCCCC(=O)O)C(=O)O)C(=O)O)C(N)=O)C(=O)O)NC(=O)[C@H](CCCNC(=N)N)NC(=O)[C@H](Cc2c[nH]cn2)NC(=O)[C@H](CCC(=O)O)NC(=O)CNC(=O)[C@H](Cc2c[nH]c3ccccc23)NC(=O)[C@H](CC(=O)O)NC(=O)[C@H](CCC(N)=O)NC(=O)[C@H](Cc2cn(C)c3ccccc23)NC1=O
B3: Compound 134 (peptide)
peptide: Ac-EFCI[Trp(1-Me)]QDWGEHRCEGEK([γGlu-Gly-γGlu-C18 diacid])-NH2
modifications: disulfide 3-13
SMILES: CC[C@H](C)[C@@H]1NC(=O)[C@@H](NC(=O)[C@H](Cc2ccccc2)NC(=O)[C@H](CCC(=O)O)NC(C)=O)CSSC[C@@H](C(=O)N[C@@H](CCC(=O)O)C(=O)NCC(=O)N[C@@H](CCC(=O)O)C(=O)N[C@@H](CCCCNC(=O)CC[C@H](NC(=O)CNC(=O)CC[C@H](NC(=O)CCCCCCCCCCCCCCCCC(=O)O)C(=O)O)C(=O)O)C(N)=O)NC(=O)[C@H](CCCNC(=N)N)NC(=O)[C@H](Cc2c[nH]cn2)NC(=O)[C@H](CCC(=O)O)NC(=O)CNC(=O)[C@H](Cc2c[nH]c3ccccc23)NC(=O)[C@H](CC(=O)O)NC(=O)[C@H](CCC(N)=O)NC(=O)[C@H](Cc2cn(C)c3ccccc23)NC1=O
B4: Compound 131 (peptide)
peptide: Ac-SEFCI[Trp(1-Me)]QDWGEHRCTEGEGGGK([γGlu-Gly-γGlu-C16 diacid])-NH2
modifications: disulfide 4-14
SMILES: CC[C@H](C)[C@@H]1NC(=O)[C@@H](NC(=O)[C@H](Cc2ccccc2)NC(=O)[C@H](CCC(=O)O)NC(=O)[C@H](CO)NC(C)=O)CSSC[C@@H](C(=O)N[C@H](C(=O)N[C@@H](CCC(=O)O)C(=O)NCC(=O)N[C@@H](CCC(=O)O)C(=O)NCC(=O)NCC(=O)NCC(=O)N[C@@H](CCCCNC(=O)CC[C@H](NC(=O)CNC(=O)CC[C@H](NC(=O)CCCCCCCCCCCCCCC(=O)O)C(=O)O)C(=O)O)C(N)=O)[C@@H](C)O)NC(=O)[C@H](CCCNC(=N)N)NC(=O)[C@H](Cc2c[nH]cn2)NC(=O)[C@H](CCC(=O)O)NC(=O)CNC(=O)[C@H](Cc2c[nH]c3ccccc23)NC(=O)[C@H](CC(=O)O)NC(=O)[C@H](CCC(N)=O)NC(=O)[C@H](Cc2cn(C)c3ccccc23)NC1=O

This passage reports IC50[nM], inhibition of hemolysis results from patent US20220306695A1, “COMPSTATIN ANALOGUES AND THEIR MEDICAL USES” (priority 2019, published 2022).

Starred links: 1 amine or outer side, 2 acyl side, 3 side chain; linkers in the order of their positions; H or OH if unused. Positions of bridges follow the written chain, without caps; N, C: chain ends. Non-standard residues stand in square brackets, D forms with d. Groups on a side chain read outwards from the residue. *: point of attachment. Trp(1-Me) = Cn1cc(C[C@H](N)C(=O)O)c2ccccc21; C18 diacid = O=C(O)CCCCCCCCCCCCCCCCC(=O)*; C16 diacid = O=C(O)CCCCCCCCCCCCCCC(=O)*; γGlu = O=C(O)[C@H](CCC(=O)[*:2])N[*:1]; Sar = CNCC(=O)O Bounds are passed on as bounds.

For the assay, the target named is Human C3 (human, UniProt P01024 23-1663). Kind of assay: cell-based or functional assay.
Sequence of Human C3 (P01024 23-1663 limits assumed): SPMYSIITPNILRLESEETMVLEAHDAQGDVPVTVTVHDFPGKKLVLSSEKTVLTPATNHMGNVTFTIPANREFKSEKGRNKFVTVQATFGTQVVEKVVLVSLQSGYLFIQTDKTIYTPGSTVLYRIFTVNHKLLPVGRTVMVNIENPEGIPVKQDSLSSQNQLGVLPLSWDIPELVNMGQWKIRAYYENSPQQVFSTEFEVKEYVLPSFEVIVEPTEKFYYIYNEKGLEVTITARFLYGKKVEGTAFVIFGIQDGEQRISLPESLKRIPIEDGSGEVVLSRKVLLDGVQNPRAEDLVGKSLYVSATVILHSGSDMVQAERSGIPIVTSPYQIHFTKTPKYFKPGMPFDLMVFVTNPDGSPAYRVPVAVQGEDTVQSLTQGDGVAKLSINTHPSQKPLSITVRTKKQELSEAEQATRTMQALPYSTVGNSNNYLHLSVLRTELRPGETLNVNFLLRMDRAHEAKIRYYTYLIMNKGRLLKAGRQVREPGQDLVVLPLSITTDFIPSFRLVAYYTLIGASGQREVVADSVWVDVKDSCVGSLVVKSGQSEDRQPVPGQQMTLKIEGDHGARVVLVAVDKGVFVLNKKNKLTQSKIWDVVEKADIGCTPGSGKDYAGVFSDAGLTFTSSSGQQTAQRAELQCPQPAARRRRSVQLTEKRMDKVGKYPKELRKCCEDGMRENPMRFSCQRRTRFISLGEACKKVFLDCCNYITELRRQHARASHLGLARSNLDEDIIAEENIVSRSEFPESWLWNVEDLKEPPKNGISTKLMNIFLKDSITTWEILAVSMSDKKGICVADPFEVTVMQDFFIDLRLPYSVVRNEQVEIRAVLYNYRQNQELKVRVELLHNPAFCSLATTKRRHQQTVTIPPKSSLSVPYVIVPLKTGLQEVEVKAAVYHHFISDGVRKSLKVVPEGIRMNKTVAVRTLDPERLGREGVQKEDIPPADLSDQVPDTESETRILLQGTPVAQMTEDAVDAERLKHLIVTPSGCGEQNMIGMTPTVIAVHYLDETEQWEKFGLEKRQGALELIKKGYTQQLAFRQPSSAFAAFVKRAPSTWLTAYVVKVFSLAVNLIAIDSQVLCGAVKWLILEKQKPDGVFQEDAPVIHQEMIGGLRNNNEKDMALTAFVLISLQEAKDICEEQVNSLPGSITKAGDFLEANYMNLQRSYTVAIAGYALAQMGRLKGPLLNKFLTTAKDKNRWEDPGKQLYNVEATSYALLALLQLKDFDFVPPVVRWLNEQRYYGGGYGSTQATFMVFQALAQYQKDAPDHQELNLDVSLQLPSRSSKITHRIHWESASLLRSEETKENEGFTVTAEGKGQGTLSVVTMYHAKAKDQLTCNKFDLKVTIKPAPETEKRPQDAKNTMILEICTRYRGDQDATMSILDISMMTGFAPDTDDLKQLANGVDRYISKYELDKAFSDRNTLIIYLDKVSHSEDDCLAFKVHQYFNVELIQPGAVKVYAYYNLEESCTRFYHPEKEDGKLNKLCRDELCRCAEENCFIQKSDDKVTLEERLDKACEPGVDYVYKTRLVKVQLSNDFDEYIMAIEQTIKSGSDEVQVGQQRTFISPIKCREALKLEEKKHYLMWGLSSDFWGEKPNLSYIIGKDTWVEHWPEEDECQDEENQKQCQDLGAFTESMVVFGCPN
Molecule B1 had an IC50[nM], inhibition of hemolysis below 100 nM.
As for B2, the figure is below 100 nM.
As for B3, the figure is below 100 nM.
B4 showed an IC50[nM], inhibition of hemolysis below 100 nM.
